This note sets out measurements from US20240002503A1.

In this assay the target is LILRB2 (human) (UniProt Q8N423). Kind of assay: flow cytometry HLA-G blocking; hIgG4 isotype control. For orientation: Flow cytometry measures light scatter and fluorescence of single cells or particles in a stream.
Chain of UniProt Q8N423 (Q8N423 22-597): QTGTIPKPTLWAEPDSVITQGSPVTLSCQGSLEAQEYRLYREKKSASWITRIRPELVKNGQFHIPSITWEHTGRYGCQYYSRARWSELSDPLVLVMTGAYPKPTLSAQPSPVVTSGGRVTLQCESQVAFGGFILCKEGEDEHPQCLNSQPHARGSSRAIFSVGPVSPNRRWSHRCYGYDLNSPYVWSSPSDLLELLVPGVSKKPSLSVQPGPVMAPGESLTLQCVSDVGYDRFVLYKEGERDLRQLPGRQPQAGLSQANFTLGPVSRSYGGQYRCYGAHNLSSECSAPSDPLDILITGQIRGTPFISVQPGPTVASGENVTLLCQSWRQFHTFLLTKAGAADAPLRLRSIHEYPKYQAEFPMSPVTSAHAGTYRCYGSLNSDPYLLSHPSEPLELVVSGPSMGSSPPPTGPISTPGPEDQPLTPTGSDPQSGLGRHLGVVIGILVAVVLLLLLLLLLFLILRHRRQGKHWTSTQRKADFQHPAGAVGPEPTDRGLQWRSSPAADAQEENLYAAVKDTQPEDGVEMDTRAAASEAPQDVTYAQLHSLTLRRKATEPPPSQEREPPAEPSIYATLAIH

In general, IC50 refers to the concentration at which inhibition is half-maximal. The low end stands for higher potency, the high end for lower potency. For Isotype, the half-inhibitory concentration (IC50) is above 66.7 nM.
